Assay results published in patent US20250215104A1 (WALDEN BIOSCIENCES, published 2025).

How the values were obtained:
[1] = molecular target: T1, cynomolgus soluble urokinase plasminogen activator receptor (suPAR) (cynomolgus, UniProt Q9GK78 23-303, limits assumed); test: BLI (Octet) off-rate screen of scFv clones
T1 construct: Column head says only 'cynomologus'; also called cynomolgus suPAR; cynomolgus uPAR

[2] = molecular target: T2, human soluble urokinase plasminogen activator receptor (suPAR) (human, UniProt Q03405 23-303, limits assumed); test: BLI (Octet) off-rate screen of scFv clones
T2 construct: Column head says only 'human'; also called human suPAR; hsuPAR
T2 sequence (Q03405 23-303 limits assumed): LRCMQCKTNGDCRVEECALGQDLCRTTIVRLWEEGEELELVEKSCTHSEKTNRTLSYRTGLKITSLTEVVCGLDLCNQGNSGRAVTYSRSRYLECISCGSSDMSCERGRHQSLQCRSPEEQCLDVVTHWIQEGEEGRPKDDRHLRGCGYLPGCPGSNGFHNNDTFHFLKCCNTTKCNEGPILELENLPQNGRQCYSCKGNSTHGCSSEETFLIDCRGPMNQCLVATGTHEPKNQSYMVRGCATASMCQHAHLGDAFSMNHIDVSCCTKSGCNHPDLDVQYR

T1 sequence (Q9GK78 23-303 limits assumed): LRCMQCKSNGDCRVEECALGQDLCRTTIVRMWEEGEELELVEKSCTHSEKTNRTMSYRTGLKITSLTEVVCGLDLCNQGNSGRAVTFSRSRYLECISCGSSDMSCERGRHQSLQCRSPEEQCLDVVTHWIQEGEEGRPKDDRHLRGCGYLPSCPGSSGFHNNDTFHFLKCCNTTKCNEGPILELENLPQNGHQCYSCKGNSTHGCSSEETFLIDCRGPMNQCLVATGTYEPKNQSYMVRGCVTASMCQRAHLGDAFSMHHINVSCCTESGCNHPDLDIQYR

B1: suPAR_DB02_D01 (scFv, V domains shown)
VH: QVQLVQSGAEVKKPGASVKVSCKASGYTFTDYYMHWVRQAPGQGLEWMGWIDHENGNTIYDQKFQGRVTMTRDTSTSTVYMELSSLRSEDTAVYYCARGYDVDWFVYWGQGTLVTVSS
VL: DIQMTQSPSSLSASVGDRVTITCSARSSVSYMYWYQQKPGKAPKLLIYRTSNLASGVPSRFSGSGSGTDFTLTISSLQPEDFATYYCQQYHSYPPTFGGGTKVEIK
notes: scFv clone from phage display
[1]
  koff: 4.7e-07 s⁻¹
[2]
  koff: 0.003 s⁻¹

B2: suPAR_DB02_F08 (scFv, V domains shown)
VH: QVQLVQSGAEVKKPGASVKVSCKASGYTFTGYYIHWVRQAPGQGLEWMGWIDPENGNTIYAQKFQGRVTMTRDTSTSTVYMELSSLRSEDTAVYYCARGYDVDWFVYWGQGTLVTVSS
VL: DIQMTQSPSSLSASVGDRVTITCSASSSISYMYWYQQKPGKAPKLLIYRTSNLASGVPSRFSGSGSGTDFTLTISSLQPEDFATYYCQQYHSYPPTFGGGTKVEIK
notes: scFv clone from phage display
[1]
  koff: 2.47e-05 s⁻¹
[2]
  koff: 0.0021 s⁻¹

B3: suPAR_DB02_F06 (scFv, V domains shown)
VH: QVQLVQSGAEVKKPGASVKVSCKASGFNFTDYYIHWVRQAPGQGLEWMGWIDPNSGSTNYAQNFQGRVTMTRDTSTSTVYMELSSLRSEDTAVYYCARGYMVDWFVYWGQGTLVTVSS
VL: DIQMTQSPSSLSASVGDRVTITCSARSSVSYMYWYQQKPGKAPKLLIYRTSNLASGVPSRFSGSGSGTDFTLTISSLQPEDFATYYCQQYHSYPPTFGGGTKVEIK
notes: scFv clone from phage display
[1]
  koff: 0.000174 s⁻¹
[2]
  koff: 0.00495 s⁻¹

B4: suPAR_DB02_F07 (scFv, V domains shown)
VH: QVQLVQSGAEVKKPGASVKVSCKASGYTFTGYYVHWVRQAPGQGLEWMGWIDPEGGNTIYDQKFQGRVTMTRDTSTSTVYMELSSLRSEDTAVYYCARGYDVDWFVYWGQGTLVTVSS
VL: DIQMTQSPSSLSASVGDRVTITCRARQSVSYMYWYQQKPGKAPKLLIYRTSNLQSGVPSRFSGSGSGTDFTLTISSLQPEDFATYYCQQYHSYPPTFGGGTKVEIK
notes: scFv clone from phage display
[1]
  koff: 0.000384 s⁻¹
[2]
  koff: 0.002 s⁻¹

B5: suPAR_DB02_F09 (scFv, V domains shown)
VH: QVQLVQSGAEVKKPGASVKVSCKASGYTFTGYYMHWVRQAPGQGLEWMGWIDPEGGSTIYDQKFQGRVTMTRDTSTSTVYMELSSLRSEDTAVYYCAGGYDVDWFVYWGQGTLVTVSS
VL: DIQMTQSPSSLSASVGDRVTITCSARSSVSYMYWYQQKPGKAPKLLIYRTSNLASGVPSRFSGSGSGTDFTLTISSLQPEDFATYYCQQYHSYPPTFGGGTKVEIK
notes: scFv clone from phage display
[1]
  koff: 0.000624 s⁻¹
[2]
  koff: 0.00166 s⁻¹

B6: suPAR_DB02_C07 (scFv, V domains shown)
VH: QVQLVQSGAEVKKPGASVKVSCKASGYTFTDSYIHWVRQAPGQGLEWMGWIDANNGDTNYAERFQGRVTMTRDTSTSTVYMELSSLRSEDTAVYYCARGYDVDWFVYWGQGTLVTVSS
VL: DIQMTQSPSSLSASVGDRVTITCSARSSVSYMYWYQQKPGKAPKLLIYRTSNLASGVPSRFSGSGSGTDFTLTISSLQPEDFATYYCQQYHSYPPTFGGGTKVEIK
notes: scFv clone from phage display
[2]
  koff: 0.0026 s⁻¹

B7: suPAR_DB02_D06 (scFv, V domains shown)
VH: QVQLVQSGAEVKKPGASVKVSCKASGDTFANYYMHWVRQAPGQGLEWMGWIIPNSGDTNYAQKFQGRVTMTRDTSTSTVYMELSSLRSEDTAVYYCARGYDVDWFVYWGQGTLVTVSS
VL: DIQMTQSPSSLSASVGDRVTITCSARSSVSYMYWYQQKPGKAPKLLIYRTSSLQSGVPSRFSGSGSGTDFTLTISSLQPEDFATYYCQQYHSYPPTFGGGTKVEIK
notes: scFv clone from phage display
[1]
  koff: 0.00051 s⁻¹
[2]
  koff: 0.00416 s⁻¹

B8: suPAR_DB02_E09 (scFv, V domains shown)
VH: QVQLVQSGAEVKKPGASVKVSCKASGFNIKDYYIHWVRQAPGQGLEWMGWIDPNSGGTNYAQKFQGRVTMTRDTSTSTVYMELSSLRSEDTAVYYCARGYDVDWFVYWGQGTLVTVSS
VL: DIQMTQSPSSLSASVGDRVTITCSARSSVSYMYWYQQKPGKAPKLLIYRTSNLASGVPSRFSGSGSGTDFTLTISSLQPEDFATYYCQQYHSYPPTFGGGTKVEIK
notes: scFv clone from phage display
[1]
  koff: 0.00021 s⁻¹
[2]
  koff: 0.00473 s⁻¹

B9: suPAR_DB02_C09 (scFv, V domains shown)
VH: QVQLVQSGAEVKKPGASVKVSCKASGYTFTGYYMHWVRQAPGQGLEWVGLINPSDGYTTYAQKFQGRVTMTRDTSTSTVYMELSSLRSEDTAVYYCARGYDVDWFVYWGQGTLVTVSS
VL: DIQMTQSPSSLSASVGDRVTITCSARSSVSYMYWYQQKPGKAPKLLIYRTSNLASGVPSRFSGSGSGTDFTLTISSLQPEDFATYYCQQYHSYPPTFGGGTKVEIK
notes: scFv clone from phage display
[1]
  koff: 0.000335 s⁻¹
[2]
  koff: 0.00387 s⁻¹

B10: suPAR_DB02_F04 (scFv, V domains shown)
VH: QVQLVQSGAEVKKPGASVKVSCKASGYTLTSYYVHWVRQAPGQGLEWMGWIDPKSGDTKYAHKFQGRVTMTRDTSTSTVYMELSSLRSEDTAVYYCARGYDVDWFVYWGQGTLVTVSS
VL: DIQMTQSPSSLSASVGDRVTITCSARSSVSYMYWYQQKPGKAPKLLIYRTSNLASGVPSRFSGSGSGTDFTLTISSLQPEDFATYYCQQYHSYPPTFGGGTKVEIK
notes: scFv clone from phage display
[1]
  koff: 0.000453 s⁻¹
[2]
  koff: 0.00384 s⁻¹

B11: suPAR_DB02_F11 (scFv, V domains shown)
VH: QVQLVQSGAEVKKPGASVKVSCKASGYTFTSSYMHWVRQAPGQGLEWMGWIDHENGNTIYDQKFQGRVTMTRDTSTSTVYMELSSLRSEDTAVYYCARGYDVDWFVYWGQGTLVTVSS
VL: DIQMTQSPSSLSASVGDRVTITCRARSSISYMYWYQQKPGKAPKLLIYRTSNLASGVPSRFSGSGSGTDFTLTISSLQPEDFATYYCQQYHSYPPTFGGGTKVEIK
notes: scFv clone from phage display
[1]
  koff: 0.000613 s⁻¹
[2]
  koff: 0.00198 s⁻¹

B12: suPAR_DB02_C06 (scFv, V domains shown)
VH: QVQLVQSGAEVKKPGASVKVSCKASGFNITDYYMHWVRQAPGQGLEWMGWIDHENGNTIYDQKFQGRVTMTRDTSTSTVYMELSSLRSEDTAVYYCARGYDVDWFVYWGQGTLVTVSS
VL: DIQMTQSPSSLSASVGDRVTITCSASQSVSYMYWYQQKPGKAPKLLIYRTSNLASGVPSRFSGSGSGTDFTLTISSLQPEDFATYYCQQYHSYPPTFGGGTKVEIK
notes: scFv clone from phage display
[1]
  koff: 0.000141 s⁻¹
[2]
  koff: 0.00475 s⁻¹

B13: suPAR_DB02_D04 (scFv, V domains shown)
VH: QVQLVQSGAEVKKPGASVKVSCKASGFTIKDYYMHWVRQAPGQGLEWMGWIDPDSGGTNYAEKFQGRVTMTRDTSTSTVYMELSSLRSEDTAVYYCARGYDVDWFVYWGQGTLVTVSS
VL: DIQMTQSPSSLSASVGDRVTITCRARQSVSYMYWYQQKPGKAPKLLIYRTSNLASGVPSRFSGSGSGTDFTLTISSLQPEDFATYYCQQYHSYPPTFGGGTKVEIK
notes: scFv clone from phage display
[1]
  koff: 0.000281 s⁻¹
[2]
  koff: 0.0041 s⁻¹

B14: suPAR_DB02_E11 (scFv, V domains shown)
VH: QVQLVQSGAEVKKPGASVKVSCKASGGTFSNYYMHWVRQAPGQGLEWMGWIDHENGNTIYDQKFQGRVTMTRDTSTSTVYMELSSLRSEDTAVYYCARGYDVDWFVYWGQGTLVTVSS
VL: DIQMTQSPSSLSASVGDRVTITCRARQSVSYMYWYQQKPGKAPKLLIYRTSSLASGVPSRFSGSGSGTDFTLTISSLQPEDFATYYCQQYHSYPPTFGGGTKVEIK
notes: scFv clone from phage display
[1]
  koff: 0.000376 s⁻¹
[2]
  koff: 0.00423 s⁻¹

B15: suPAR_DB02_E05 (scFv, V domains shown)
VH: QVQLVQSGAEVKKPGASVKVSCKASGFNIKDYYIHWVRQAPGQGLEWMGWVDPSSGATDYAQKFQGRVTMTRDTSTSTVYMELSSLRSEDTAVYYCARGYDVDWFVYWGQGTLVTVSS
VL: DIQMTQSPSSLSASVGDRVTITCSARSSVSYMYWYQQKPGKAPKLLIYRTSNLASGVPSRFSGSGSGTDFTLTISSLQPEDFATYYCQQYHSYPPTFGGGTKVEIK
notes: scFv clone from phage display
[1]
  koff: 0.00146 s⁻¹
[2]
  koff: 0.00239 s⁻¹
